Laboratory results taken from PMC9352680, “A comprehensive thermodynamic model for RNA binding by the Saccharomyces cerevisiae Pumilio protein PUF4”.

T1: PUF4 RNA-binding domain (Saccharomyces cerevisiae, UniProt P25339 537-888)
T1 sequence: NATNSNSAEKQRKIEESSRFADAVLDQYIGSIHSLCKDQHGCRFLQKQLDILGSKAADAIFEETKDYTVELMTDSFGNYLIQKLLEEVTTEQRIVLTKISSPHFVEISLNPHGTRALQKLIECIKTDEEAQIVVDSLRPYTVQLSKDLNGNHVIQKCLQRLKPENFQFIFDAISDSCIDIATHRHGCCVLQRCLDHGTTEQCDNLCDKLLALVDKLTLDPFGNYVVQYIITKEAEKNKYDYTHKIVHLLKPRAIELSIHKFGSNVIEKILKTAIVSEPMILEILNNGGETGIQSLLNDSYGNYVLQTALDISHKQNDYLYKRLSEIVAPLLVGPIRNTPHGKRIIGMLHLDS


Biological target: T1, PUF4 RNA-binding domain
Experiment: Mg; RNA-MaP; 20 mM Na-HEPES pH 7.4, 30 mM KOAc, 0.75 mM MgCl2, 0.1% Tween-20, 5% glycerol, 0.1 mg/mL BSA, 2 mM DTT; 25 C; 0.0125-409.6 nM protein
Settings: tags: N-His6-TEV cleaved; C-SNAP kept, Cy3B-labelled; label: tethered on chip by stalled RNA polymerase

Binder	Kd
Ie_S4_P5E.1_K5.1_C5.1_H5.1_[+3TCTC]_A5.1_F5.1_T5.1 (ssRNA) RNA: UUUGACAACUGAUCGUUCUUUCUUGUUCUCAUUAUUAUUCUUUCUCGAUCAGUUGUCUUU	40.3 nM
Ie_S4_P5E.1_K5.1_C5.1_H5.1_[+3TTCC]_A5.1_F5.1_T5.1 (ssRNA) RNA: UUUGACAACUGAUCGUUCUUUCUUGUUUCCAUUAUUAUUCUUUCUCGAUCAGUUGUCUUU	44.8 nM
Ie_S4_P5E.1_K5.1_C5.1_H5.1_[+3CCCTT]_A5.1_F5.1_T5.1 (ssRNA) RNA: UUUGACAACUGAUCGUUCUUUCUUGUCCCUUAUUAUUAUUCUUUCUCGAUCAGUUGUCUUU	54.8 nM
Ie_S4_P5E.1_K5.1_C5.1_H5.1_[+4CC]_A5.1_F5.1_T5.1 (ssRNA) RNA: UUUGACAACUGAUCGUUCUUUCUUGUACCUUAUUAUUCUUUCUCGAUCAGUUGUCUUU	1.43 nM
Ie_S4_P5E.1_K5.1_C5.1_H5.1_[+4CT]_A5.1_F5.1_T5.1 (ssRNA) RNA: UUUGACAACUGAUCGUUCUUUCUUGUACUUUAUUAUUCUUUCUCGAUCAGUUGUCUUU	0.642 nM
Ie_S4_P5E.1_K5.1_C5.1_H5.1_[+4CCC]_A5.1_F5.1_T5.1 (ssRNA) RNA: UUUGACAACUGAUCGUUCUUUCUUGUACCCUUAUUAUUCUUUCUCGAUCAGUUGUCUUU	3.18 nM
Ie_S4_P5E.1_K5.1_C5.1_H5.1_[+4CTC]_A5.1_F5.1_T5.1 (ssRNA) RNA: UUUGACAACUGAUCGUUCUUUCUUGUACUCUUAUUAUUCUUUCUCGAUCAGUUGUCUUU	2.91 nM
Ie_S4_P5E.1_K5.1_C5.1_H5.1_[+4TCC]_A5.1_F5.1_T5.1 (ssRNA) RNA: UUUGACAACUGAUCGUUCUUUCUUGUAUCCUUAUUAUUCUUUCUCGAUCAGUUGUCUUU	6.26 nM
Ie_S4_P5E.1_K5.1_C5.1_H5.1_[+4CTT]_A5.1_F5.1_T5.1 (ssRNA) RNA: UUUGACAACUGAUCGUUCUUUCUUGUACUUUUAUUAUUCUUUCUCGAUCAGUUGUCUUU	1.26 nM
Ie_S4_P5E.1_K5.1_C5.1_H5.1_[+4CCTC]_A5.1_F5.1_T5.1 (ssRNA) RNA: UUUGACAACUGAUCGUUCUUUCUUGUACCUCUUAUUAUUCUUUCUCGAUCAGUUGUCUUU	7.54 nM
Ib_S2_P3E.1_K3.1_C3.1_H3.1_[A4G]_A3.1_[A6T]_F3.1_T3.1 (ssRNA) RNA: UUUGAUUAAUAUGAUAUCGUUCUUUCUUGUGUUUAUUCUUUCUCGAUAUCAUAUUAAUCUUU	37 nM
Ie_S4_P5E.1_K5.1_C5.1_H5.1_[+4TTCC]_A5.1_F5.1_T5.1 (ssRNA) RNA: UUUGACAACUGAUCGUUCUUUCUUGUAUUCCUUAUUAUUCUUUCUCGAUCAGUUGUCUUU	9.55 nM
Ie_S4_P5E.1_K5.1_C5.1_H5.1_[+4CCCT]_A5.1_F5.1_T5.1 (ssRNA) RNA: UUUGACAACUGAUCGUUCUUUCUUGUACCCUUUAUUAUUCUUUCUCGAUCAGUUGUCUUU	6.05 nM
Ie_S4_P5E.1_K5.1_C5.1_H5.1_[+4TTCCT]_A5.1_F5.1_T5.1 (ssRNA) RNA: UUUGACAACUGAUCGUUCUUUCUUGUAUUCCUUUAUUAUUCUUUCUCGAUCAGUUGUCUUU	16.5 nM
Ie_S4_P5E.1_K5.1_C5.1_H5.1_[+4CCCTT]_A5.1_F5.1_T5.1 (ssRNA) RNA: UUUGACAACUGAUCGUUCUUUCUUGUACCCUUUUAUUAUUCUUUCUCGAUCAGUUGUCUUU	9.87 nM
Ie_S4_P5E.1_K5.1_C5.1_H5.1_A5.1_[+5TTT]_F5.1_T5.1 (ssRNA) RNA: UUUGACAACUGAUCGUUCUUUCUUGUAUUUUUAUUAUUCUUUCUCGAUCAGUUGUCUUU	2.85 nM
Ie_S4_P5E.1_K5.1_C5.1_H5.1_A5.1_[+5CCCT]_F5.1_T5.1 (ssRNA) RNA: UUUGACAACUGAUCGUUCUUUCUUGUAUCCCUUAUUAUUCUUUCUCGAUCAGUUGUCUUU	16 nM
Ie_S4_P5E.1_K5.1_C5.1_H5.1_A5.1_[+5CTCTC]_F5.1_T5.1 (ssRNA) RNA: UUUGACAACUGAUCGUUCUUUCUUGUAUCUCUCUAUUAUUCUUUCUCGAUCAGUUGUCUUU	13.3 nM
Ie_S4_P5E.1_K5.1_C5.1_H5.1_A5.1_[+5TCTCT]_F5.1_T5.1 (ssRNA) RNA: UUUGACAACUGAUCGUUCUUUCUUGUAUUCUCUUAUUAUUCUUUCUCGAUCAGUUGUCUUU	14.2 nM
Ie_S4_P5E.1_K5.1_C5.1_H5.1_A5.1_[+5CCCTT]_F5.1_T5.1 (ssRNA) RNA: UUUGACAACUGAUCGUUCUUUCUUGUAUCCCUUUAUUAUUCUUUCUCGAUCAGUUGUCUUU	20.8 nM
Ie_S4_P5E.1_K5.1_C5.1_H5.1_A5.1_[+6C]_F5.1_T5.1 (ssRNA) RNA: UUUGACAACUGAUCGUUCUUUCUUGUAUUCAUUAUUCUUUCUCGAUCAGUUGUCUUU	13.4 nM
Ib_S2_P3E.1_K3.1_C3.1_H3.1_[A4C]_A3.1_[A6G]_F3.1_T3.1 (ssRNA) RNA: UUUGAUUAAUAUGAUAUCGUUCUUUCUUGUCUGUAUUCUUUCUCGAUAUCAUAUUAAUCUUU	40.8 nM
Ie_S4_P5E.1_K5.1_C5.1_H5.1_A5.1_[+6CCC]_F5.1_T5.1 (ssRNA) RNA: UUUGACAACUGAUCGUUCUUUCUUGUAUUCCCAUUAUUCUUUCUCGAUCAGUUGUCUUU	60.8 nM

Binder	Kd
Ie_S4_P5E.1_K5.1_C5.1_H5.1_A5.1_[+6TTC]_F5.1_T5.1 (ssRNA) RNA: UUUGACAACUGAUCGUUCUUUCUUGUAUUUUCAUUAUUCUUUCUCGAUCAGUUGUCUUU	32 nM
Ie_S4_P5E.1_K5.1_C5.1_H5.1_A5.1_[+6TTCC]_F5.1_T5.1 (ssRNA) RNA: UUUGACAACUGAUCGUUCUUUCUUGUAUUUUCCAUUAUUCUUUCUCGAUCAGUUGUCUUU	19.2 nM
Ie_S4_P5E.1_K5.1_C5.1_H5.1_A5.1_[+6CTCTC]_F5.1_T5.1 (ssRNA) RNA: UUUGACAACUGAUCGUUCUUUCUUGUAUUCUCUCAUUAUUCUUUCUCGAUCAGUUGUCUUU	43.6 nM
Ie_S4_P5E.1_K5.1_C5.1_H5.1_A5.1_[+7CCC]_F5.1_T5.1 (ssRNA) RNA: UUUGACAACUGAUCGUUCUUUCUUGUAUUACCCUUAUUCUUUCUCGAUCAGUUGUCUUU	85 nM
Ie_S4_P5E.1_K5.1_C5.1_H5.1_A5.1_[+7CCT]_F5.1_T5.1 (ssRNA) RNA: UUUGACAACUGAUCGUUCUUUCUUGUAUUACCUUUAUUCUUUCUCGAUCAGUUGUCUUU	66.5 nM
Ie_S4_P5E.1_K5.1_C5.1_H5.1_A5.1_[+7TCT]_F5.1_T5.1 (ssRNA) RNA: UUUGACAACUGAUCGUUCUUUCUUGUAUUAUCUUUAUUCUUUCUCGAUCAGUUGUCUUU	24.9 nM
Ie_S4_P5E.1_K5.1_C5.1_H5.1_A5.1_[+7CTT]_F5.1_T5.1 (ssRNA) RNA: UUUGACAACUGAUCGUUCUUUCUUGUAUUACUUUUAUUCUUUCUCGAUCAGUUGUCUUU	26.8 nM
Ie_S4_P5E.1_K5.1_C5.1_H5.1_A5.1_[+7TTT]_F5.1_T5.1 (ssRNA) RNA: UUUGACAACUGAUCGUUCUUUCUUGUAUUAUUUUUAUUCUUUCUCGAUCAGUUGUCUUU	12.5 nM
Ie_S4_P5E.1_K5.1_C5.1_H5.1_A5.1_[+7CTCT]_F5.1_T5.1 (ssRNA) RNA: UUUGACAACUGAUCGUUCUUUCUUGUAUUACUCUUUAUUCUUUCUCGAUCAGUUGUCUUU	65.1 nM
Ib_S2_P3E.1_K3.1_C3.1_H3.1_[A4C]_A3.1_[A6T]_F3.1_T3.1 (ssRNA) RNA: UUUGAUUAAUAUGAUAUCGUUCUUUCUUGUCUUUAUUCUUUCUCGAUAUCAUAUUAAUCUUU	1200 nM
Ie_S4_P5E.1_K5.1_C5.1_H5.1_A5.1_[+7CTCTC]_F5.1_T5.1 (ssRNA) RNA: UUUGACAACUGAUCGUUCUUUCUUGUAUUACUCUCUUAUUCUUUCUCGAUCAGUUGUCUUU	28.7 nM
Ie_S4_P5E.1_K5.1_C5.1_H5.1_A5.1_F5.1_[+8C]_T5.1 (ssRNA) RNA: UUUGACAACUGAUCGUUCUUUCUUGUAUUAUCUAUUCUUUCUCGAUCAGUUGUCUUU	17.1 nM
Ie_S4_P5E.1_K5.1_C5.1_H5.1_A5.1_F5.1_[+8CC]_T5.1 (ssRNA) RNA: UUUGACAACUGAUCGUUCUUUCUUGUAUUAUCCUAUUCUUUCUCGAUCAGUUGUCUUU	21 nM
Ie_S4_P5E.1_K5.1_C5.1_H5.1_A5.1_F5.1_[+8CT]_T5.1 (ssRNA) RNA: UUUGACAACUGAUCGUUCUUUCUUGUAUUAUCUUAUUCUUUCUCGAUCAGUUGUCUUU	16.1 nM
Ie_S4_P5E.1_K5.1_C5.1_H5.1_A5.1_F5.1_[+8TTC]_T5.1 (ssRNA) RNA: UUUGACAACUGAUCGUUCUUUCUUGUAUUAUUUCUAUUCUUUCUCGAUCAGUUGUCUUU	12.3 nM
Ie_S4_P5E.1_K5.1_C5.1_H5.1_A5.1_F5.1_[+8CTCT]_T5.1 (ssRNA) RNA: UUUGACAACUGAUCGUUCUUUCUUGUAUUAUCUCUUAUUCUUUCUCGAUCAGUUGUCUUU	27.8 nM
Ie_S4_P5E.1_K5.1_C5.1_H5.1_A5.1_F5.1_[+8TCTC]_T5.1 (ssRNA) RNA: UUUGACAACUGAUCGUUCUUUCUUGUAUUAUUCUCUAUUCUUUCUCGAUCAGUUGUCUUU	20.1 nM
Ie_S4_P5E.1_K5.1_C5.1_H5.1_A5.1_F5.1_[+8TTCC]_T5.1 (ssRNA) RNA: UUUGACAACUGAUCGUUCUUUCUUGUAUUAUUUCCUAUUCUUUCUCGAUCAGUUGUCUUU	21.1 nM
Ie_S4_P5E.1_K5.1_C5.1_H5.1_A5.1_F5.1_[+8CTCTC]_T5.1 (ssRNA) RNA: UUUGACAACUGAUCGUUCUUUCUUGUAUUAUCUCUCUAUUCUUUCUCGAUCAGUUGUCUUU	27.5 nM
Ie_S4_P5E.1_K5.1_C5.1_H5.1_A5.1_F5.1_[+9CCC]_T5.1 (ssRNA) RNA: UUUGACAACUGAUCGUUCUUUCUUGUAUUAUUCCCAUUCUUUCUCGAUCAGUUGUCUUU	10.8 nM
Ib_S2_P3E.1_K3.1_C3.1_H3.1_[A4T]_A3.1_[A6C]_F3.1_T3.1 (ssRNA) RNA: UUUGAUUAAUAUGAUAUCGUUCUUUCUUGUUUCUAUUCUUUCUCGAUAUCAUAUUAAUCUUU	472 nM
Ie_S4_P5E.1_K5.1_C5.1_H5.1_A5.1_F5.1_[+9CCT]_T5.1 (ssRNA) RNA: UUUGACAACUGAUCGUUCUUUCUUGUAUUAUUCCUAUUCUUUCUCGAUCAGUUGUCUUU	17.6 nM
Ie_S4_P5E.1_K5.1_C5.1_H5.1_A5.1_F5.1_[+9CTC]_T5.1 (ssRNA) RNA: UUUGACAACUGAUCGUUCUUUCUUGUAUUAUUCUCAUUCUUUCUCGAUCAGUUGUCUUU	29.8 nM
